This experiment has as its target Measles virus matrix protein (MeV-M) fused to a twin StrepII tag (Measles virus) (UniProt Q9W850). The experiment in a line: SEC-MALS.

As a reminder, the stoichiometry N is the number of molecules, sites or subunits per partner or assembly.

“Measles virus matrix protein (MeV-M) fused to a twin StrepII tag (from UniProt Q9W850 1-335) (natural protein)” returned a stoichiometry N of 2.
